# Data reported in patent publication US12365710B2, “HMGB1 protein derivatives for the removal of biofilms” (RESEARCH INSTITUTE AT NATIONWIDE CHILDREN'S HOSPITAL, priority 2018, dated 2025).
# Where two headings read alike, the source gives them in different places.
# B1: mHMGB1: engineered C45S variant of full length rHMGB1 that mimics the reduced form of HMGB1 (protein, UniProt P09429 1-215, looked up, variant C45S)
# chain: MGKGDPKKPRGKMSSYAFFVQTCREEHKKKHPDASVNFSEFSKKSSERWKTMSAKEKGKFEDMAKADKARYEREMKTYIPPKGETKKKFKDPNAPKRPPSAFFLFCSEYRPKIKGEHPGLSIGDVAKKLGEMWNNTAADDKQPYEKKAAKLKEKYEKDIAAYRAKGKPDAAKKGVVKAEKSKKKKEEEEDEEDEEDEEEEEDEEDEDEEEDDDDE
# modifications: full-length
# notes: engineered C45S variant of full length rHMGB1 that mimics the reduced form of HMGB1
# B2: B-linker Box: HMGB1 B Box with N- and C-terminal linker (80-179; 80 to 176 in b258), 97 amino acid (protein, UniProt P09429 80-179, looked up, fragment)
# chain: PPKGETKKKFKDPNAPKRPPSAFFLFCSEYRPKIKGEHPGLSIGDVAKKLGEMWNNTAADDKQPYEKKAAKLKEKYEKDIAAYRAKGKPDAAKKGVVKAE
# Columns and labels:
# [1] = tested on: Klebsiella pneumoniae biofilms; test: in vitro disruption of pre-formed biofilms, LIVE/DEAD, CLSM and COMSTAT; type: cell-based; conditions: for disruption of established K. pneumoniae biofilms (average thickness, biomass): 200 nM added at 24 h, 16 h incubation; for % reduction in average thickness (AT), mean±SE / % reduction in biomass (BM), mean±SE: 200 nM added to pre-formed biofilms at 24 h, read at 40 h, vs untreated KP biofilms
# Description: FIGS. 5A-5E: Anti-biofilm effect of HMGB1 variants on high priority bacterial pathogens. Indicated HMGB1 variants or antibodies against DNABII proteins (α-1HFEc 1gG, 1 μM) were added at 24 h to the respective preformed bacterial biofilms, in vitro. After 16 h of Incubation, biofilms were stained with LIVE/DEAD®, then visualized via confocal laser scanning microscopy. Images were analyzed by COMSTAT to calculate average thickness and comparison to control was plotted. (FIG. 5A) Full-length HMGB1 isoforms (200 nM unless otherwise indicated) added to UPEC, B. cenocepacia, NTHI, or ESKAPE pathogens. 800 nM rHMGB1 and 200 nM mHMGB1 were added for S. aureus (ESKAPE). 800 nM rHMGB1, 800 nM mHMGB1, or 3.3 μM of α-1HFEc 1gG were added for E. faecium (ESKAPE) and were incubated for 1 h as opposed to 16 h to avoid potential degradation by E. faecium proteases. (FIG. 5B) Representative images of UPEC biofilms incubated with increasing concentrations of rHMGB1. (FIG. 5C) Individual domains of HMGB1 (200 nM) were tested for anti-biofilm activity as above (dotted line indicates control values). Bars represent the SEM. Statistical significance compared to control was assessed with unpaired t-tests, *P<0.05. […] (FIGS. 5D-5E) HMGB1 and variants disrupt preformed Klebsiella pneumoniae biofilms. rHMGB1, HMGB1 C45S (mHMGB1), bovine HMGB1 (bHMGB1), B box, B Box C106S (mB Box), A Box, and A+B Box were added (200 nM) at 24 h to preformed K. pneumoniae biofilms. After 16 h of incubation, biofilms were stained with LIVE/DEAD®, then visualized via confocal laser scanning microscopy. Images were analyzed by COMSTAT to calculate average thickness and total biomass. Error bars represent the SEM. ***P<0.0001; ns=not significant.
# An in vitro biofilm assay was used to test the effect of HMGB1 and its variants on established bacterial biofilms. Applicant expressed, (in E. coli) and purified >95% human recombinant full length HMGB1 (rHMGB1; 1-215), a C45S mutated variant (mHMGB1) and the HMGB1 domains A Box (1-89), A+B Boxes (1-176), B Box (80-179), and B Box C106S (mB Box) (FIG. 3). […] To evaluate the effect of HMGB1 and its variants as well as a commercially available native bovine HMGB1 (used as a control) on established bacterial biofilms, each protein was added (at 200 nM), to pre-formed Klebsiella pneumoniae biofilms after 24 h of growth. After a 16 h incubation (40 h total biofilm growth), the biofilms were stained with LIVE/DEAD® and analyzed using confocal laser scanning microscopy (CLSM) and COMSTAT analysis to calculate the average thickness and total biomass of the biofilms. […] The results of this study lead to a noteworthy observation that a single dose of these non-antimicrobial compounds was able to disrupt recalcitrant biofilms. In addition, the HMGB1 variants have disrupted every bacterial species tested to date, which includes Uropathogenic E. coli, Burkholderia cenocepacia, Nontypeable Haemophilus influenzae (FIG. 6). A single dose at this concentration released of bacteria from their protective shield makes them vulnerable to clearance by antibiotics and the immune system.
# Klebsiella pneumoniae (KP), a common cause of nosocomial infections was used for all BBs disruption assays. Human recombinant full length HMGB1 (rHMGB1; 1-215), a C45S mutation variant (mHMGB1) and the HMGB1 domains A Box (1-89), B Box (90-176), AB Boxes (1-176), B-linker Box (80-179), and B-linker Box C106S were expressed (in E. coli) and purified to >95%. To evaluate the effect of rHMGB1 and the various domains on established BBs, each protein species (200 nM) was added to pre-formed BBs at 24 h. At 40 h the BBs were washed, stained with LIVE/DEAD®, visualized via confocal laser scanning microscopy and images were analyzed by COMSTAT to calculate average thickness and biomass.
# serum TNF-alpha (TNF-α) = conditions: cited from earlier work
Molecule,"disruption of established K. pneumoniae biofilms (average thickness, biomass) [1]","% reduction in average thickness (AT), mean±SE [1]","% reduction in biomass (BM), mean±SE [1]","amount required to induce sepsis, compared to our doses (serum TNF-alpha (TNF-α); 4 doses in 40 h, LPS-primed mice)","amount required to induce sepsis, compared to our doses (serum TNF-alpha (TNF-α); B Box alone)"
rHMGB1: tagless human recombinant full length HMGB1 (1-215) expressed in E. coli,significantly disrupt,44%±0.33,61%±0.01,2 fold,–
B1,–,75%±0.04,80%±0.01,–,–
B2,retained full anti-biofilm activity,77%±0.03,67%±0.01,–,> 450 fold
